The source of these data is patent publication US20060257904A1.

Some results are limits rather than exact numbers.

In the assay the target is human recombinant prion protein (hrPrP), amino acid residues 23-231 of human PrPC (human) (UniProt P04156). As to the kind of experiment: cell-based or functional assay.

In the case of “α-2 macroglobulin (α2M), purified preparation”, the protection of PrP from PK degradation amounted to 4 µg; the protection of PrP from PK degradation in a mixture with tubulin was 16 µg; the protection of PrP from PK proteolysis (immunoblot with mAb 34C9) amounted to 5 µg; the protection of rhuPrP from PK degradation, dose dependence was more than 6 µg.
